Laboratory results as given in a protein production outcome set (Wang et al. 2014).

Test: label from the status in PepcDB records
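Also: failed if final PepcDB status was selected cloned or expressed and not failed if soluble or beyond.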

## MDANEFHWLMDMLESVEVGLVVLDLDFHVQAWNGFMEHHSGITARQIRDKVLFEVFPDIPEAWLTRKVDAVAMLNTRAFTSWEQRPYLFKFRNTRPITGTEEYMFQNLTISPITAPNGEVEKVCLLVYDVTEFASSKRALERANEQLAKLSMTDRLTGLLNRGTWENLVDAEYERFRRYGQATSLVMFDIDHFKPVNDTYGHLAGDEVIRHTADVTRNNIRQSDSAGRYGGEEFGIILPETDAESARVICERIREAIEKSTVSTSAGDIQYTVSMGIAQLTETPENYMQWMQKADEALYKAKESGRNKVVVSLEHHHHHH
  protein production: failed

## MDAPKAGYAFEYLIETLNDSSHKKFFDVSKLGTKYDVLPYSIRVLLEAAVRNCDGFLMKKEDVMNILDWKTKQSNVEVPFFPARVLLQDFTGIPAMVDFAAMREAVKTLGGDPEKVHPACPTDLTVDHSLQIDFSKCAIQNAPNPGGGDLQKAGKLSPLKVQPKKLPCRGQTTCRGSCDSGELGRNSGTFSSQIENTPILCPFHLQPVPEPETVLKNQEVEFGRNRERLQFFKWSSRVFKNVAVIPPGTGMAHQINLEYLSRVVFEEKDLLFPDSVVGTDSHITMVNGLGILGWGVGGIETEAVMLGLPVSLTLPEVVGCELTGSSNPFVTSIDVVLGITKHLRQVGVAGKFVEFFGSGVSQLSIVDRTTIANMCPEYGAILSFFPVDNVTLKHLEHTGFSKAKLESMETYLKAVKLFRNDQNSSGEPEYSQVIQINLNSIVPSVSGPKRPQDRVAVTDMKSDFQACLNEKVGFKGFQIAAEKQKDIVSIHYEGSEYKLSHGSVVIAAVISCTNNCNPSVMLAAGLLAKKAVEAGLRVKPYIRTSLSPGSGMVTHYLSSSGVLPYLSKLGFEIVGYGCSTCVGNTAPLSDAVLNAVKQGDLVTCGILSGNKNFEGRLCDCVRANYLASPPLVVAYAIAGTVNIDFQTEPLGTDPTGKNIYLHDIWPSREEVHRVEEEHVILSMFKALKDKIEMGNKRWNSLEAPDSVLFPWDLKSTYIRCPSFFDKLTKEPIALQAIENAHVLLYLGDSVTTDHISPAGSIARNSAAAKYLTNRGLTPREFNSYGARRGNDAVMTRGTFANIKLFNKFIGKPAPKTIHFPSGQTLDVFEAAELYQKEGIPLIILAGKKYGSGNSRDWAAKGPYLLGVKAVLAESYEKIHKDHLIGIGIAPLQFLPGENADSLGLSGRETFSLTFPEELSPGITLNIQTSTGKVFSVIASFEDDVEITLYKHGGLLNFVARKFS
  protein production: not failed

## MDCIRNNSVLINNLSSFTSGIMSSGYSPFYILYIAMNIATLTYAVGTLFYGLPIPIYGLKKWGPRMMSDAIYAAVWVNIYGIIIFAIGQIQSLLGVDWSSFFSSILQLQANMFSALIQVKSLYYIITTEKISMALALLADPVLQFSSFITDIIFLLQFFIDLGEFIQQSYMILIAIGILLLSLPFRMGKGVGGTLISSAIIFYIGLPYLPIFMQEMSSITLSQIGSQLSTITDVNTLVETIAGVVPELVIVFIIIPMLYLSILAGISLGLGNAIGGSSGRVPFPLDLF
  protein production: failed

## MDCKKFIQMVEEKKRRVLEKQEAPLKWEQKLEAAANAKADTETKVKRSKGPKRKQRAASESSSESDSSSEVRRKSRRSHNKHRRHAHSDSDDSDRRKEKKSRRQKRRSLSPSDDSTGDYESGSEDELRMKIKHHRRHKWHSSRKTCDDDSTEDVRRKHLKHHRRSEVVTSSDSEEESGRRRRGKYHRHNRGSASSSGSEEDSGKSMKRRQHKRHRLAESSSEEDGAMRRTRHHKHGRDSASESDGRR
  protein production: failed

## MDCRKMARFSYSVIWIMAISKVFELGLVAGLGHQEFARPSRGYLAFRDDSIWPQEEPAIRPRSSQRVPPMGIQHSKELNRTCCLNGGTCMLGSFCACPPSFYGRNCEHDVRKENCGSVPHDTWLPKKCSLCKCWHGQLRCFPQAFLPGCDGLVMDEHLVASRTPELPPSARTTTFMLVGICLSIQSYY
  protein production: failed

## MDDAERERGPWHRNLIVLWFCTFVAGMAFSEIMPFLSLFVSQLGDFTKAQITFYSGLAFAADYAISAISAPLWGIIADKKGRKIMLLRASLGMAVAMGLMGFVTNVWQLVALRALQGVFAGFISNAQALVASQTPRKYSGRALSTLITGAVSGQLFGPVIGGLLAQLFSIRNTFFITAGLLMVAFLLSLFFVQEHFKPVAHHREPGDSRNPLAAFQNPRLIIVMLCSTAIVQFGNASIAPIISLYVRELMHYRGPITVVAGIIAALPGISNIFSAPRLGRYGDQHGSGKVLLFGYIFAVIMYFPQGIVTSVVALGILRFAIGISDGALYPEIQTVLTKNTPVHLTSTIFSYNQSFQAIGNMFGALLGGLVAGWFNYNAVFIMTALLLLINLGLILWLVPDIWKNGKRAVS
  protein production: failed

## MDDETLRLQFGHLIRILPTLLEFEKKGYEPSLAEIVKASGVSEKTFFMGLKDRLIRAGLVKEETLSYRVKTLKLTEKGRRLAECLEKCRDVLGS
  protein production: not failed

## MDDSKSSYKLGLFVVSALVSLFVVLFILGGRSLFEPKIIVETYFDESVSGLEVGAPVRFRGITAGEVVSIELSDALYEAAVPRENRKSYVVVRSEITGAKRTIEEWNRSIEISIERGLRATTQLAGITGQQYLSFDYTSMDEGLSFNWKPNYPYVPSTKSSAGKIVSGIQSLIARLDEADINTLVANINMLIETLNQSISALDADALNAQLLALLINSNQMVKSVDGVISDPEVKEIVSSLAQISKSLNSSLKDKGDINKLIKHLDRAAVRLDVIMADNQSDINYVIKDLRVTVENLKSFSETLKNQPSSIIFSSEPEKLKIN
  protein production: failed

## MDDVQVERILQNPKFKKMVSKKATLSWTLTIIMLIVYVGFMLLVGYNKEFLMSSFSGGVTTWGIPLGLGIIVLSFVLCGVYSYIANNTLDQLNEEALREVENITHEKGLH
  protein production: failed

## MDECTVTRHYEGKGRNAGRLGAVGCKNRHGEFRIGSGFKDKDRDNPPKIGTLITYRYRGFTRKGTPKFATFVRVRTDLEHHHHHH
  protein production: not failed

## MDEKNIVALLGQPNVGKTTLFNHLTGMKQRIGNWPGVTVEKKEGFFKKNNENYVVVDLPGIYSLMSDSIDQKIARDYIVENSKITVIDVIDTPNINRNLYLTIQLLELGISPILCLNLIDEAEKFGIYVNDQKLSEKLGVPVIRTSGRHKIGIDNLKNALYEFKPTEPVKITYSSLLEETIEKIIDKLENSQYKLDEIYARLPKRWIAISLLEKDPDVVNKFSKYPEFIKFVKDLKIEIENEIKHDVESYVVEQRYKKCDEILAGVMVNSELYEDIDTIVIHPVYGSLIFGVVLYTMYNFVFGLGDIFSGFIGSFFEILGNYLMNILPESFSGVIIDGLLAGVGGVLEFFPIVFLIMFSLSTLEDTGYLSRVTALTHSVMSTMGLSGKSFIPMITGFGCSVPALMGTRFISSHKERLITLLVTPLVPCSARFVIIGFFASFFFIEHAALFTLSILAITFAMLFIVSYVLSKFIKGEAEEYIFELPPYRIPDWDNIIKMTWAKSKEFLKKAGTVIAAGSILFYGFVNYPSPDANYAAVVGKIIEHVTQYMGLDWRAAISLIFGIFAKELVVSSFSILYPENISTAFSPLKAFVLTLVSVLYIPCLATLATLYLETRSLKWTAFGIGYNLVLATLVGIITYNIGTMLGF
  protein production: failed

## MDELAGGGGGGQGMAAPPRPQQGPGGNLSLPPGANGAPGGGGPPAAEAAGPPAGPELSRPQQYTIPGILHYIQHEWARFEMERAHWEVERAELQARIAFLQGERKGQENLKKDLVRRIKMLEYALKQERAKYHKLKYGTELNQGDLKMPTFESEETKDVEAPPAPQNSQLTWKQGRQLLRQYLQEVGYTDTILDVRSQRVRSLLGLSNSEPNGSVEAKNLEQILNGGESPKQKGQEIKRPPGDVLETFNFLENADDSDEEENDMIEGIPEGKDKLRIHKHKIGNEGLAADLTDDPDTEEALKEFDFLVTAEDGEGAGEARSSGDGTEWDKDDLSPTAEVWDVDQGLISKLKEQYKKERKGKKGVKRVNRTNLCDMITDLGDDELPHIPSGIINQSRSASTRMADHEGARAEEAEPITFPSGGGKSFIMGSDDVLLSVLGLGDLADLTVTNDADYSYDLPANKDAFRKTWNPKYTLRSHFDGVRALAFHPVEPVLVTASEDHTLKLWNLQKTVPAKKSASLDVEPIYTFRAHIGPVLSLAISSNGEQCFSGGIDATIQWWNMPSPNVDPYDTYESNVLAGTLVAHTDAVWGLAYSGIKNQLLSCSADGTIRLWNPQEKLPCVCTYNGDKEHGIPTSVDFIGCDPAHMVTSFNTGSAVIYDLETSQSLVMLSSQVDSGLQSSNHINRVVSHPTLPVTITAHEDRHIKFFDNKTGKMIHSMVAHLDAVTSLAVDPNGIYLMSGSHDCSIRLWNLDSKTCVQEITAHRKKLDESIYDVAFHPSKAYIASAGADALAKVFV
  protein production: failed
